Values joined by “and” are separate entries in the source; they are usually repeats but may differ in a detail not shown here. Equal entries are not always repeated.
Target: HLA B*07 (Homo sapiens, UniProt P01889)
Experiment: T2B7 binding assay (stabilization of HLA B*07 on TAP-deficient T2 cells, FACS)
Settings: for Avg. Fold Inc. @ 200: fold increase over background; for Avg. Fold Inc. @ 200 / Avg. MFI 200: peptide at 200 ug/ml; for Avg. MFI 200: mean fluorescence index; for Binding number (binding score): numerical sum of all the positive assays; for Binding strength: rated strong, moderate, weak or none by number of significantly positive wells
Method: Triplicate wells of peptide at 10, 20, 200 ug/ml were evaluated in each of the T2 B7 binding assays; each assay was repeated 4 times. […] The “binding score” column provides the numerical sum of all the positive assays in the binding summary column.
The T2B7 binding assay method is well described in the literature and operational in the laboratory. This assay relies on the ability of exogenously added peptides to stabilize the class I MHC/beta 2 microglobulin structure on the surface of transporters associated with antigen processing (TAP)-deficient cell lines. Briefly, HLA B*07 T2 cell lines were prepared by incubating overnight (16 hours) at 26° C. Just prior to the binding assay these cells were washed twice in serum-free media. Solutions of the test peptides at three concentrations (final concentration of 10, 20, and 200 ug/ml in RPMI 1640 (Sigma, St. Louis, Mo.)) were plated in triplicate wells of a 96 well, round-bottom assay plate (Beckton Dickinson, Lincoln Park, N.J.). Sixteen wells containing cells without peptide were included in each plate, serving as the no-peptide control (background control) for the assay.
100,000 cells were added to each well, and the plates were then incubated for four hours at 37° C., 5% CO2 The plates were then spun at 110×g for 10 minutes at 4° C., supernatant is discarded and the remaining cells are re-suspended. One hundred uL of diluted primary antibody-containing hybridoma supernatant (1:10 dilution of ME1 supernatant produced by HB-119 cell line from ATCC) in staining buffer (PBS, 5% FBS, 0.1% sodium azide) was added to all of the wells except 8 wells per assay plate (each containing 200 ug/ml of one study peptide, these wells served as controls for non-specific binding of secondary antibody). Primary antibody was incubated with the peptide-pulsed cells for 30 minutes at 4° C. After washing three times, the cells were re-suspended, and 100 uL of a 1:250 dilution of FITC-labeled secondary antibody (FITC labeled Goat F(ab′)2 Anti-mouse IgG (H+L) from Caltag) in staining buffer were added to all wells. The plates were incubated for 30 minutes at 4° C., and subsequently washed three times. The contents of each well were then resuspended in 200 uL of fixing buffer (PBS, 1% paraformaldehyde), and aliquoted into FACS tubes.
The 16 negative control wells in each plate contained no peptide but did contain cells, primary antibody and secondary antibody. An additional set of triplicate wells was plated with peptide at the highest concentration (200 ug/ml), but no primary antibody was added to the wells to control for non-specific secondary antibody binding. One positive control peptide (the known B*07 binder) was tested at three concentrations (in triplicate wells) in each assay plate.
Following fixing, the presence of fluorescent secondary antibody on the surface of T2 cells (gated to the appropriate cell size) was measured at 488 nm on a FACScan flow cytometer (Becton-Dickinson, New Jersey). The mean linear fluorescence […] of 10,000 events was measured and compared to the background fluorescence of cells plated in (no peptide) control wells. A positive response was defined as a 10% increase over baseline MLF and p<0.05, in more than one concentration in each of four assays. The assays are repeated 4 times for each concentration of peptide. Each peptide was tested in a total of 36 wells (triplicate wells, three concentrations, four assays).

## APAYSFNCLG [WNB7 005]
  Avg. Fold Inc. @ 200: 1.2
  Avg. MFI 200: 743.5
Listed as 0005
  Binding number (binding score): 8
Listed as WNVB7 0005
  Binding number (binding score): 8
  Binding strength: moderate (stabilized HLA B*07 to a moderate degree (receiving binding scores of 6 to 8))

## AVKDELNTLL [WNB7 004]
  Avg. Fold Inc. @ 200: 1.0
  Avg. MFI 200: 842.5
  Binding number (binding score): 0
  Binding strength: non-binder (did not bind (binding score of 2))

## EPPEGVKYVL [WNB7 013]
  Avg. Fold Inc. @ 200: 1.1
  Avg. MFI 200: 681.7
Listed as WNVB7 0013
  Binding number (binding score): 6
  Binding strength: moderate (stabilized HLA B*07 to a moderate degree (receiving binding scores of 6 to 8))

## GPGHEEPQLV [WNB7 011]
  Avg. Fold Inc. @ 200: 1.0
  Avg. MFI 200: 848.9
  Binding number (binding score): 2
  Binding strength: non-binder (did not bind (binding score of 2))

## GPGHKARVLA [HIV-1 B7 1291, reference compound]
  Avg. Fold Inc. @ 200: 2.2 and 1.5 and 1.6
  Avg. MFI 200: 1423.8 and 1370.9 and 1003.9
  Binding number (binding score): 8 and 9
  Binding strength: moderate (stabilized HLA B*07 to a moderate degree (receiving binding scores of 6 to 8))
Listed as WC 1291
  Binding number (binding score): eight to nine
  Binding strength: moderately well

## IPAGFEPEML [WNB7 008]
  affinity to B*07 in vitro compared with previously published B*07 epitope GPGHKARVLA (from HIV-1): much greater affinity
  Avg. Fold Inc. @ 200: 1.9
  Avg. MFI 200: 1207.4
  Binding number (binding score): 10
  Binding strength: strong (stabilized HLA B7 on the surface of T2B7 cells at more than two concentrations in all four replicate assays, receiving a total binding score of 10, 11, 11, 12, and 12)

## KPTGSASSLV [WNB7 015]
  Avg. Fold Inc. @ 200: 1.7
  Avg. MFI 200: 1070.2
Listed as WNVB7 0015
  Binding number (binding score): 6
  Binding strength: moderate (stabilized HLA B*07 to a moderate degree (receiving binding scores of 6 to 8))

## NPMILAAGLI [WNB7 007]
  Avg. Fold Inc. @ 200: 1.1
  Avg. MFI 200: 944.6
  Binding number (binding score): 2
  Binding strength: non-binder (did not bind (binding score of 2))

## PEDIDCWCTK [WNVB7 3399]
  stabilization of HLA B*07 on the surface of T2B7 cells: did not stabilize T2B7 to a significant degree
  Avg. Fold Inc. @ 200: 1.1
  Avg. MFI 200: 990.3
  Binding number (binding score): 1
  Binding strength: non-binder (did not bind (binding score of 2))

## PETPQGLAKI [WNVB7 3403]
  stabilization of HLA B*07 on the surface of T2B7 cells: did not stabilize T2B7 to a significant degree
  Avg. Fold Inc. @ 200: 1.0
  Avg. MFI 200: 588.9
  Binding number (binding score): 0
  Binding strength: non-binder (did not bind (binding score of 2))

## PFPESNSPIS [WNVB7 3411]
  stabilization of HLA B*07 on the surface of T2B7 cells: did not stabilize T2B7 to a significant degree
  Avg. Fold Inc. @ 200: 1.0
  Avg. MFI 200: 626.7
  Binding number (binding score): 1
  Binding strength: non-binder (did not bind (binding score of 2))

## PRTNTILEDN [WNVB7 3415]
  stabilization of HLA B*07 on the surface of T2B7 cells: did not stabilize T2B7 to a significant degree
  Avg. Fold Inc. @ 200: 0.9
  Avg. MFI 200: 778.6
  Binding number (binding score): 0
  Binding strength: non-binder (did not bind (binding score of 2))
